Results from paper PMC4363726 (Molecules and Cells, 2015).

T1: AGL15-GST (Arabidopsis thaliana, UniProt Q38847 1-268)
T1 sequence: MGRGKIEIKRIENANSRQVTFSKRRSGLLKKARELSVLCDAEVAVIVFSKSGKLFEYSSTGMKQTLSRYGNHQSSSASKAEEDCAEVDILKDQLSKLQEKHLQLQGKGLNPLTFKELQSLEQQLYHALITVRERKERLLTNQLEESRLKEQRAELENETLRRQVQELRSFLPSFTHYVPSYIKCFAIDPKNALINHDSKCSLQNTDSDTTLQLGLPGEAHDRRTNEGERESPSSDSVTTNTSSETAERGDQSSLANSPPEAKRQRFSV

T2: AGL15-His (Arabidopsis thaliana, UniProt Q38847 1-268)
T2 sequence (looked up): T1 sequence

B1: miR156a NC (dsDNA)
DNA 1: TAAGAGAGATAAAGAAAGCGACAAGAGCCA
DNA 2: TGGCTCTTGTCGCTTTCTTTATCTCTCTTA
B2: miR156c NC (dsDNA)
DNA 1: TTCAGACATCTGTCCCATTGCATGTAAGAG
DNA 2: CTCTTACATGCAATGGGACAGATGTCTGAA
B3: miR156c CArG I (dsDNA)
DNA 1: AAAAAAATTGCTATTTTTTGAAAATGTTAC
DNA 2: GTAACATTTTCAAAAAATAGCAATTTTTTT
B4: miR156a CArG II (dsDNA)
DNA 1: ATATATCTTCCATAATTTTGCAAGTCTTTA
DNA 2: TAAAGACTTGCAAAATTATGGAAGATATAT
B5: miR156a CArG I (dsDNA)
DNA 1: TGGTGAAAAACAATTAATAGAAAATTAATT
DNA 2: AATTAATTTTCTATTAATTGTTTTTCACCA
B6: miR156c CArG II (dsDNA)
DNA 1: TGAATTAATTCTTAAAATTGTGAAATAATT
DNA 2: AATTATTTCACAATTTTAAGAATTAATTCA
B7: miR156a CArG III (dsDNA)
DNA 1: ATAATAATAATCTAATTAAAGGAGATGAGA
DNA 2: TCTCATCTCCTTTAATTAGATTATTATTAT
B8: GST-AGL18 (natural protein, Arabidopsis thaliana, UniProt Q9M2K8 1-256, looked up)
chain: MGRGRIEIKKIENINSRQVTFSKRRNGLIKKAKELSILCDAEVALIIFSSTGKIYDFSSVCMEQILSRYGYTTASTEHKQQREHQLLICASHGNEAVLRNDDSMKGELERLQLAIERLKGKELEGMSFPDLISLENQLNESLHSVKDQKTQILLNQIERSRIQEKKALEENQILRKQVEMLGRGSGPKVLNERPQDSSPEADPESSSSEEDENDNEEHHSDTSLQLGLSSTGYCTKRKKPKIELVCDNSGSQVASD
B9: miR156a CArG V (dsDNA)
DNA 1: CTTTTTTTTGCTTTTTATGGTTATGTTTTT
DNA 2: AAAAACATAACCATAAAAAGCAAAAAAAAG
B10: miR156a CArG IV (dsDNA)
DNA 1: CAAGTTCATTGCCATTTTTAGGTCTCTCTA
DNA 2: TAGAGAGACCTAAAAATGGCAATGAACTTG
B11: miR156c CArG III (dsDNA)
DNA 1: TTGTCGTTGCCGTTTATAGGTTATGAGATT
DNA 2: AATCTCATAACCTATAAACGGCAACGACAA

target: T1, AGL15-GST; experiment: EMSA

| Binder | binding result |
| --- | --- |
| B1 | no binding |
| B2 | no binding |
| B3 | no binding |
| B4 | no binding |
| B5 | no binding |
| B6 | no binding |
| B7 | no binding |

target: T2, AGL15-His; experiment: pull-down

| binding result | Binder |
| --- | --- |
| binds | B8 |

target: T1, AGL15-GST; experiment: competition

| Binder | binding result |
| --- | --- |
| B9 | binds |
| B10 | binds |
| B11 | binds |
